Measured values taken from the nanobody polyreactivity screen of Harvey et al. (2022).

Assay: yeast display, Sf9 membrane polyspecificity reagent, FACS + sequencing; frameworks hold sequencing errors
Method in brief: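 Galactose-induced (36–48 hours) yeast carrying a synthetic nanobody display library were exposed to 10% biotinylated, detergent-solubilized Sf9 membrane reagent at 4 °C for 1 hour. FACS followed streptavidin microbead enrichment, using low and high (top ~1%) gates for expression (anti-HA) and reagent binding (streptavidin). Colony PCR, MiSeq 2 × 250 sequencing and CDR-length filtering followed. Labels for polyreactivity reflect the gate of origin.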

Sequence	polyreactivity (PSR sort gate)
QVQLVESGGGLVQAGGSLRLSCAASGSTFFHYAMGWYRQAPGKERELVAAISGSGGSTYYADSVKGRFTISRDNAKNTVYLQMNSLKPEDTAVYYCNARVWHYTSRTTFDYWGQGTQVTVSS	low polyreactivity
QVQLVESGGGLVQAGGSLRLSCAASGSTFFIYAMGWYRQAPGKERELVAAITSGGTYADSVKGRFTISRDNAKNTVYLQMNSLKPEDTAVYYCNAGNNVVVDYDYWGQGTQVTVSS	low polyreactivity
QVQLVESGGGLVQAGGSLRLSCAASGSTFFIYAMGWYRQAPGKERELVAAITWRGGTTYYADSVKGRFTISRDNAKNTVYLQMNSLKPEDTAVYYCNADPVDYANIVYYYDYNYWGQGTQVTVSS	low polyreactivity
QVQLVESGGGLVQAGGSLRLSCAASGSTFFIYTMGWYRQAPGKEREFVAAISWTGGRTYYADSVKGRFTISRDNAKYTVYLQMNSLIPEDTPVYYCAALYKYSSYDYWGQGTQVTVSS	high polyreactivity
QVQLVESGGGLVQAGGSLRLSCAASGSTFFKYAMGWYRQAPGKERELVAAISYSGGSTYYADSVKGRFTISRDNAKNTVYLQMNSLKPVDTAVYYCAARVQNRYRPYYYWGQGTQVTVSS	high polyreactivity
QVQLVESGGGLVQAGGSLRLSCAASGSTFFLYAMGWYRQAPGKERELVAAISTTGGSTNYADSVKGRFTISRDNAKNTVYLQMNSLKPEDTAVYYCAAGPSAQSIYDHWGQGTQVTVSS	low polyreactivity
QVQLVESGGGLVQAGGSLRLSCAASGSTFFLYAMGWYRQAPGKERELVASITDGGSTNYADSVKGRFTISRDNAKNTVYLQMNSLKPEDTAVYYCAKDYIHFSHKYDYWGQGTQVTVSS	low polyreactivity
QVQLVESGGGLVQAGGSLRLSCAASGSTFFLYVRGWYRQAPGKERELVAAITSGGRTYYADSVKGRFTISRDNAKNTVYLQMNSLKPEDTAVYNCAADVRRVRVGKYDYWGQGTQVTVSS	high polyreactivity
QVQLVESGGGLVQAGGSLRLSCAASGSTFFNNAMGWYRQAPGKERELVAAITGGGGRTYYADSVKGRFTISRDNAKNTVYLQMNSLKPEDTAVYYCAAVPRRSYGGYPYYYWGQGTQVTVSS	low polyreactivity
QVQLVESGGGLVQAGGSLRLSCAASGSTFFPNAMGWDRQAPGKERELVAAITRSDDDTYYADSVKGRFTISRVHAKNTVYLQMNCLKPEDTAVYYCAADGTSTDSPSWPGYEYWGQGTQVTVSS	low polyreactivity
QVQLVESGGGLVQAGGSLRLSCAASGSTFFPNGMGWYRQAPGKERELVAAITQDGGSTYYADSVKGRFTISRDNAKNTVYLQMNSLKPEDTAVYYCNADYFVWYIGRVFSRYGYWGQGTQVTVSS	low polyreactivity
QVQLVESGGGLVQAGGSLRLSCAASGSTFFPYAMGWYRQAPGKERELVAAIRWSGGRTYYADSVKGRFTISRDNAKNTVYLQMNRLKPEDTAVYYCNAGRYKYTDDYWGQGTQVTVSS	high polyreactivity
QVQLVESGGGLVQAGGSLRLSCAASGSTFFPYAMGWYRQAPGKERELVAAIRWSGGRTYYADSVKGRFTISRDNAKNTVYLQMNSLNPEDTAVYYCAAAKYLDYDYWGQGTQVTVSS	high polyreactivity
QVQLVESGGGLVQAGGSLRLSCAASGSTFFPYAMGWYRQAPGKERELVAGISSDGGTYYADSVKGRFTISRDNAKNTVYLQMNSLKPEDTAVYYCAALQADRDRYPEFDLMDYWGQGTQVTVSS	low polyreactivity
QVQLVESGGGLVQAGGSLRLSCAASGSTFFRNAMGWYRQAPGKERELVAGITSGVTTYYADSVKGRFTISRDNAKNTVYLQMNSLKPEDTAVYYCAARRTGYRLRKSDYWGQGTQVTVSS	high polyreactivity
QVQLVESGGGLVQAGGSLRLSCAASGSTFFRYTMGWYRQAPGKERELVAAISWSGGSTYYADSVKGRFTISRDNAKNTVYLQMNSLKPEDTAVYYCAAVYEWDAVKWVDVDMDYWGQGTQVTVSS	low polyreactivity
QVQLVESGGGLVQAGGSLRLSCAASGSTFFRYTMGWYRQAPGKERELVAAITSGGGTDYADSVKGRFTISRDNGKNTVYLQMNSLKPDDTAVYYCAVILSWRDYYLYWRGSWRDDYWGQGTQVSVSS	low polyreactivity
QVQLVESGGGLVQAGGSLRLSCAASGSTFFTNAMGWYRQAPGKERELVATITWSGGSTYADSVKGRFTISRDNAKNTVYLQMNSLKPEDTAVFYCAAESSSYWGDQGGALWLYDYWGQGTQVTVSS	low polyreactivity
QVQLVESGGGLVQAGGSLRLSCAASGSTFFTNVMGWYRQAPGKERELVADISSGGDTNYADSVKGRFTISRDNAKNTVYLQMNSLKPEDTAVYYCAVDPNVDYELHGFFFSFDYWGQGTQVTVSS	low polyreactivity
QVQLVESGGGLVQAGGSLRLSCAASGSTFFTYAMGWYRQAPGKERELVAAISWSGGTTYYSDSVKWRFTISRDYAKNTDYLQMNSLKPEDTAGYYCASDRDGILKANDYWGQGTQVTVSS	low polyreactivity
QVQLVESGGGLVQAGGSLRLSCAASGSTFFYNVMGWYRQAPGKERELVAAITSSGGGTYYADSVKGRFTISRDNAKNTVYLQMNSLKPEDTAVYYCAKPVWLRDYRHGGRFGYWGQGTQVTVSS	low polyreactivity
QVQLVESGGGLVQAGGSLRLSCAASGSTFFYYAMGWYRQAPGKERAFVAAISSSVGTTYYADSVKGRFTISRDNAKNTVYLQMNRLKPVDTAVYYCAKASSATRYVQLRQDYDYWGQGTQVTVSS	low polyreactivity

Sequence	polyreactivity (PSR sort gate)
QVQLVESGGGLVQAGGSLRLSCAASGSTFFYYTMGWYIQAPGKERELVADITRGGGTTYYADSVKGRFTISRDNAKNTVYLQMNSLKPEDTAVYYCNAPYPNARYWTGWGYYYWGQGTQVTVSS	high polyreactivity
QVQLVESGGGLVQAGGSLRLSCAASGSTFGANAMGWYRQAPGKERELVATISSGGRTYYADSVKGRFTISRDNAKNTVYLQMNSLKPEDTAVYYCNAGADYTYVYISVYVLYDYWGQGTQVTVSS	low polyreactivity
QVQLVESGGGLVQAGGSLRLSCAASGSTFGANAMGWYRQAPGKERELVAVITWNDGSTYYADSVKGRFTISRDNAKNTVYLQMNSLKPEDTAVYYCAAEYADSWSAFDWNYYYWVQGTQVTVSS	high polyreactivity
QVQLVESGGGLVQAGGSLRLSCAASGSTFGAYAMGWSRKAPGKERELVAAISRRGGSTYYADSVKGRFTISRDNAKNTVYLQMNSLKPEDTAVYYCNAVGTRVDGEHYYWGQGTQVTVSS	high polyreactivity
QVQLVESGGGLVQAGGSLRLSCAASGSTFGAYAMGWSRQAPGKERELVAAISKRGGSTYYADSVKGRFTISRDNAKNTVYLQMNSLKPEDTAVYYCATDHFSPTYGYWGQGTQVTVSS	low polyreactivity
QVQLVESGGGLVQAGGSLRLSCAASGSTFGAYAMGWYRQAPGKEREFVAAISGGGDGTYADSVKGRFTISRDNAKNTVYLQMNSLKPEDTAVYYCAAEDVPYDREDYWGQGTQVTVSS	low polyreactivity
QVQLVESGGGLVQAGGSLRLSCAASGSTFGDYSMGWYRQAPGKERELVAAISRGGSTYYADSVKGRFTISRDNAKNTVYLQMNSLKPEDTAVYYCNNDVGYSASPDGSTFDYWGQGTQVTVSS	low polyreactivity
QVQLVESGGGLVQAGGSLRLSCAASGSTFGENAMGWYRQAPGKERELVAGINSTGGSTYYADSVKGRFTISRDNAKNTVSLQMNSLKPEDTAVYYCAAGDWYSGNTSHFYYWGQGTQVTVSS	low polyreactivity
QVQLVESGGGLVQAGGSLRLSCAASGSTFGEYAMGWYRQAPGKERELVAAITSSGGSTYYADSVKGRFTISRDNAKNTVYLQMNSLKPEDTAVYYCAADWDYPYDEAVSKDIDYDYWGQGTQVTVSS	low polyreactivity
QVQLVESGGGLVQAGGSLRLSCAASGSTFGEYAMGWYRQAPGKERELVAGITSGGSTNYADSVKGRFTISRDNAKNTVYLQMNSLKPEDTAVYYCNARFYGSVDYWGLGTQVTVSS	low polyreactivity
QVQLVESGGGLVQAGGSLRLSCAASGSTFGFNAMGWYRQAPGKEREFVAAITRSGGSTYYADSVKGRFTISRDNAKNTVYLQMNSLKPEDTAVYYCAKRRYFYSQWVRAFDYWGQGTQVTVSS	high polyreactivity
QVQLVESGGGLVQAGGSLRLSCAASGSTFGFYAMGWYRQAPGKERELVAAISGRGGSTYYADSVKGRFTISRDNAKNTVYLQMNSLKPEDTAVYYCAAKYYGEMYYWGQGTQVTVSS	low polyreactivity
QVQLVESGGGLVQAGGSLRLSCAASGSTFGFYAMGWYRQAPGKERELVAAITSGDITYADSVKGRFTISRDNAKNTVYLQMNSLKPEDTAVYYCAASGPYSYDWGQGTQVTVSS	low polyreactivity
QVQLVESGGGLVQAGGSLRLSCAASGSTFGGNAMGWYRQAPGKERELVAAISSGGTTNYADSVKGRFTISRDNAKNTVDLQMNSLKPEDTAVYYCNKPHRWPQAGYGYWGQGTQVTVSS	high polyreactivity
QVQLVESGGGLVQAGGSLRLSCAASGSTFGGNDMGWYRQAPGKERELVAAISSGTSTNYADSVKGRFTISRDNAKNTVYLQMNSLKPEDTAVYYCNAGFWYRRTYDYWGQGTQVTVSS	low polyreactivity
QVQLVESGGGLVQAGGSLRLSCAASGSTFGGNGMGWYRQAPGKEREFVATITWRSGSTYYADSVKGRFTISRDKAKNTVYLKMNILKPEDSAVYYCAKYTSSRRNTWYYYWGQGTEVTVSS	high polyreactivity
QVQLVESGGGLVQAGGSLRLSCAASGSTFGGSAMGWYRQAPGKERELVAAISKSGGSTYYADSVKGRFTISRDNAKNTVYLQMNSLKPEDTAVYYCNAPYKRSPYNYWGQGTQVTVSS	high polyreactivity
QVQLVESGGGLVQAGGSLRLSCAASGSTFGGYAMGWYIQAPGKERELVADISRRVGSTYYADSVKGRFTISRDNAKNTVYLQMNSLKPEDTAVYYCNVPRIVIISGPSSPFRYYWGQGTQVTVSS	high polyreactivity
QVQLVESGGGLVQAGGSLRLSCAASGSTFGGYAMGWYRQAPAKERELVAAISTSGGNTYYADSVKGRFTISRDNAKNTVYLQMNRLKPEDTAVYYCARDRVSWGGQDSWGQGTQVSVSS	high polyreactivity
QVQLVESGGGLVQAGGSLRLSCAASGSTFGGYAMGWYRQAPGKERELVAAISGSGVRTYYADSEKGRFTISRDNAKNTVYLQMNSLQPEDTAVYYCAKRVRYPGDRYYYWGQGTQVTVSS	high polyreactivity
QVQLVESGGGLVQAGGSLRLSCAASGSTFGGYAMGWYRQAPGKERELVAGITISVGSTYYADSVKGRFTISRDNAKNTVYLQMNSLKPEDTAVYYCAADGLSWYNYWGQGTQVTVSS	high polyreactivity
